Legend:
[1] = molecular target: T1, Kitasatospora setae crotonyl-CoA carboxylase/reductase (KsCcr) variant His365Asn (H365N), SEQ ID NO: 19 (Kitasatospora setae, UniProt E4N096, H365N); assay: Steady-state kinetics of the reductive aldol reaction (crotonyl-CoA + formaldehyde + NADPH); type: biochemical
T1 construct: gene provided by JGI
T1 sequence (E4N096 1-445 H365N): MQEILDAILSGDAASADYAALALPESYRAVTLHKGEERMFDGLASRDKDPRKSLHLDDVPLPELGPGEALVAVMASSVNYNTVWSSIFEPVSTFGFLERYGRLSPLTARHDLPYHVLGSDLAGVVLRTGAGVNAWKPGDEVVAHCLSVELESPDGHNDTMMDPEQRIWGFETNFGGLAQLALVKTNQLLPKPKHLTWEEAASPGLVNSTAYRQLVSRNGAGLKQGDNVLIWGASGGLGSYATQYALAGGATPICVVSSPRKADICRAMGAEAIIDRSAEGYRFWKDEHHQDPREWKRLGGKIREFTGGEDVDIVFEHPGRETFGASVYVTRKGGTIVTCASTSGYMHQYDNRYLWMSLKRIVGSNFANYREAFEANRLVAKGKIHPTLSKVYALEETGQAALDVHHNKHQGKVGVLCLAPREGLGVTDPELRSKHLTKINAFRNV
Method: His-tagged KsCcr and its variants were expressed in E. coli BL21 (DE3). Cells in terrific broth were grown at 37° C. to an OD600=0.8-1.0 upon which expression for 12-16 h at 23° C. was induced by the addition of 500 μM IPTG (Isopropyl-D-β-thiogalactopyranoside). Cells were harvested for 15 min at 7500× g at 4° C. then resuspended in 2 mL of buffer A (50 mM Tris, 500 mM NaCl, 1 M L-Proline, pH=7.5) per gram of pellet. The suspension was treated with […] of DNAse I, 5 mM MgCl2, 10 μg/ml of lysozyme and incubated on ice for 20 min upon which cells were lysed using a sonicator. The lysate was clarified at 45000× g at 4° C. for 40 min and then loaded onto a pre-equilibrated 1 mL HisTrap FF column and washed with 15% buffer B (50 mM Tris, 500 mM NaCl, 1 M L-Proline, 500 mM imidazole, pH=7.5) for 20-30 column volumes until the UV 280 nm reached the baseline level. […]
Formaldehyde stock solution concentration was determined by following the formation of phenylhydrazone at 368 nm (εPhenylhydrazone,368 nm=6.1 mM^−1 cm^−1). […]
For reactions in which the full conversion to the aldol product was achieved assays were performed on a Cary-60 UV/Vis spectrophotometer (Agilent) at 30° C. using quartz cuvettes (1 mm, 3 mm or 10 mm path length; Hellma). […] Kinetic parameters for one substrate were determined by varying its concentration while the others were kept constant at 10 times their KM value.

[2] = substrate: NC(=O)C1=CN([C@@H]2O[C@H](COP(=O)(O)OP(=O)(O)OC[C@H]3O[C@@H](n4cnc5c(N)ncnc54)[C@H](OP(=O)(O)O)[C@@H]3O)[C@@H](O)[C@H]2O)C=CC1; assay: cells, lysate or membranes named; details: other: apparent KM, 100 mM K2HPO4 pH 8.0, 30 °C, other substrates at 10 times KM, mean ± standard error
[3] = substrate: C/C=C/C(=O)SCCNC(=O)CCNC(=O)[C@H](O)C(C)(C)COP(=O)(O)OP(=O)(O)OC[C@H]1O[C@@H](n2cnc3c(N)ncnc32)[C@H](O)[C@@H]1OP(=O)(O)O; assay: cells, lysate or membranes named; type: biochemical, Kitasatospora setae; details: other substrates at 10 times KM, mean ± standard error
Method: (§1) His-tagged KsCcr and its variants were expressed in E. coli BL21 (DE3). Cells in terrific broth were grown at 37° C. to an OD600=0.8-1.0 upon which expression for 12-16 h at 23° C. was induced by the addition of 500 μM IPTG (Isopropyl-D-β-thiogalactopyranoside). Cells were harvested for 15 min at 7500× g at 4° C. then resuspended in 2 mL of buffer A (50 mM Tris, 500 mM NaCl, 1 M L-Proline, pH=7.5) per gram of pellet. The suspension was treated with 10 mg/mL of DNAse I, 5 mM MgCl2, 10 μg/ml of lysozyme and incubated on ice for 20 min upon which cells were lysed using a sonicator. The lysate was clarified at 45000× g at 4° C. for 40 min and then loaded onto a pre-equilibrated 1 mL HisTrap FF column and washed with 15% buffer B (50 mM Tris, 500 mM NaCl, 1 M L-Proline, 500 mM imidazole, pH=7.5) for 20-30 column volumes until the UV 280 nm reached the baseline level. The protein was eluted by applying 100% buffer B, collected then pooled and desalted into 12.5 mM Tris, 125 mM NaCl, 1 M L-Proline pH=7.5. […] The protein was flash frozen in N2 (I) and stored at −80° C. if not immediately used for assays.
(§2) Assays were performed on a Cary-60 UV/Vis spectrophotometer (Agilent) at 30° C. using quartz cuvettes (10 mm path length; Hellma) contained K2HPO4 pH=8.0 and 3 mM phenylhydrazine.
(§3) For reactions in which the full conversion to the aldol product was achieved assays were performed on a Cary-60 UV/Vis spectrophotometer (Agilent) at 30° C. using quartz cuvettes (1 mm, 3 mm or 10 mm path length; Hellma). Reactions were performed in 100 mM K2HPO4 pH=8.0. Kinetic parameters for one substrate were determined by varying its concentration while the others were kept constant at 10 times their KM value. […] For reactions where both butyryl-CoA and the aldol product where formed the steady state parameters were determined using a discontinuous assay. Reactions of 100 μL volume were performed in 100 mM K2HPO4 pH=8.0 at 30° C. and each concentration was assayed in triplicates. Samples of 20 μL reaction were quenched with 2 μL of 50% formic acid and centrifuged for 10 min at 17′000 g at 4° C. 10 μL of this solution were diluted in 40 μL of 500 mM Tris HCl pH=7 and incubated overnight at room temperature. Samples were analyzed using by HPLC over an Agilent Eclipse Plus C18, 3.5 μm 100 Å, 100×2.1 mm, 4.6×100 mm column using 5% to 30% acetonitrile gradient over 7.5 min with 25 mM ammonium formate pH=8.1 as the aqueous phase.

[4] = substrate: NC(=O)C1=CN([C@@H]2O[C@H](COP(=O)(O)OP(=O)(O)OC[C@H]3O[C@@H](n4cnc5c(N)ncnc54)[C@H](OP(=O)(O)O)[C@@H]3O)[C@@H](O)[C@H]2O)C=CC1; assay: cells, lysate or membranes named; type: biochemical, Kitasatospora setae; details: other: 100 mM K2HPO4 pH 8.0, 30 °C, other substrates at 10 times KM, mean ± standard error
Method: as §1, §2, §3

[5] = substrate: C=O; assay: cells, lysate or membranes named; type: biochemical, Kitasatospora setae; details: other: calculated with K = 1000 for the equilibrium between formaldehyde and its methylene diol form, pH 8.0, 30 °C
Method: as §1, §2, §3

[6] = tested on: KsCcr; assay: HPLC analysis of reaction products: 2-HMB-CoA formed over total products from crotonyl-CoA and formaldehyde; type: biochemical, Kitasatospora setae; details: for Ratio of 2-HMB-CoA formed over total products: triplicates, mean ± standard deviation, values given as %
From the text: KsCcr wild-type (WT) natively promotes the NADPH-dependent reductive carboxylation of crotonyl-CoA into ethylmalonyl-CoA. […] Under these conditions, neither ethylmalonyl-CoA (carboxylation product) nor butyryl-CoA (reduction side product) were detected with LC-MS (see Table 2 further below). […] The compound was isolated and its structure was further verified using 2-dimensional NMR and high-resolution MS experiments. […] The newly introduced carbon was also observed in the ^13C-NMR experiment, confirming formation of aldol product 2-HMB-CoA by KsCcr.
The reaction was diluted 10 times into 5% methanol/Buffer 8.1 and analyzed by HPLC over an Agilent Eclipse Plus C18, 3.5 μm 100 Å, 100×2.1 mm, […] column using 5% to 30% acetonitrile gradient over 7.5 min with 25 mM ammonium formate pH=8.1 as the aqueous phase.

[7] = tested on: KsCcr; assay: Native reductive carboxylation of crotonyl-CoA with CO2; type: biochemical, Kitasatospora setae; details: CO2 as electrophile
[8] = other: apparent KM, 100 mM K2HPO4 pH 8.0, 30 °C
[9] = other: 100 mM K2HPO4 pH 8.0, 30 °C

C=O [formaldehyde]
apparent catalytic rate relative to WT enzyme ([1]; decreased to % of the WT enzyme): 10%
apparent KM for formaldehyde, increase compared to WT ([1]; fold increase compared to WT): two-fold

B1: Kitasatospora setae crotonyl-CoA carboxylase/reductase (KsCcr), wild type (WT), SEQ ID NO: 1 (Kitasatospora setae KM-6054) (protein)
chain: MQEILDAILSGDAASADYAALALPESYRAVTLHKGEERMFDGLASRDKDPRKSLHLDDVPLPELGPGEALVAVMASSVNYNTVWSSIFEPVSTFGFLERYGRLSPLTARHDLPYHVLGSDLAGVVLRTGAGVNAWKPGDEVVAHCLSVELESPDGHNDTMMDPEQRIWGFETNFGGLAQLALVKTNQLLPKPKHLTWEEAASPGLVNSTAYRQLVSRNGAGLKQGDNVLIWGASGGLGSYATQYALAGGATPICVVSSPRKADICRAMGAEAIIDRSAEGYRFWKDEHHQDPREWKRLGGKIREFTGGEDVDIVFEHPGRETFGASVYVTRKGGTIVTCASTSGYMHQYDNRYLWMSLKRIVGSHFANYREAFEANRLVAKGKIHPTLSKVYALEETGQAALDVHHNKHQGKVGVLCLAPREGLGVTDPELRSKHLTKINAFRNV
notes: gene provided by JGI
Km [2]: 389 ± 49 µM
Km [3, 8]: 33 ± 4 µM
kcat [3, 8]: 30 ± 1 s⁻¹

B2: Kitasatospora setae crotonyl-CoA carboxylase/reductase (KsCcr) variant His365Asn (H365N), SEQ ID NO: 19 (Kitasatospora setae KM-6054; H365N) (protein)
chain: MQEILDAILSGDAASADYAALALPESYRAVTLHKGEERMFDGLASRDKDPRKSLHLDDVPLPELGPGEALVAVMASSVNYNTVWSSIFEPVSTFGFLERYGRLSPLTARHDLPYHVLGSDLAGVVLRTGAGVNAWKPGDEVVAHCLSVELESPDGHNDTMMDPEQRIWGFETNFGGLAQLALVKTNQLLPKPKHLTWEEAASPGLVNSTAYRQLVSRNGAGLKQGDNVLIWGASGGLGSYATQYALAGGATPICVVSSPRKADICRAMGAEAIIDRSAEGYRFWKDEHHQDPREWKRLGGKIREFTGGEDVDIVFEHPGRETFGASVYVTRKGGTIVTCASTSGYMHQYDNRYLWMSLKRIVGSNFANYREAFEANRLVAKGKIHPTLSKVYALEETGQAALDVHHNKHQGKVGVLCLAPREGLGVTDPELRSKHLTKINAFRNV
notes: gene provided by JGI
Km [4]: 16 ± 7 µM
Km [3, 9]: 69 ± 17 µM
kcat [3, 9]: 3.1 ± 0.2 s⁻¹
Km [5]: 66 ± 23 µM
kcat [5]: 3.1 ± 0.2 s⁻¹

B3: KsCcr variant Asn81Leu: KsCcr active site variant Asn81Leu, SEQ ID NO: 20 (protein)
chain: MQEILDAILSGDAASADYAALALPESYRAVTLHKGEERMFDGLASRDKDPRKSLHLDDVPLPELGPGEALVAVMASSVNYLTVWSSIFEPVSTFGFLERYGRLSPLTARHDLPYHVLGSDLAGVVLRTGAGVNAWKPGDEVVAHCLSVELESPDGHNDTMMDPEQRIWGFETNFGGLAQLALVKTNQLLPKPKHLTWEEAASPGLVNSTAYRQLVSRNGAGLKQGDNVLIWGASGGLGSYATQYALAGGATPICVVSSPRKADICRAMGAEAIIDRSAEGYRFWKDEHHQDPREWKRLGGKIREFTGGEDVDIVFEHPGRETFGASVYVTRKGGTIVTCASTSGYMHQYDNRYLWMSLKRIVGSHFANYREAFEANRLVAKGKIHPTLSKVYALEETGQAALDVHHNKHQGKVGVLCLAPREGLGVTDPELRSKHLTKINAFRNV
modifications: KsCcr variant Asn81Leu
Ratio of 2-HMB-CoA formed over total products ([6]; 5 mM formaldehyde): 35 ± 0
2-HMB-CoA produced (reductive aldol product) ([6]; 75 mM formaldehyde): up to 64%
Ratio of 2-HMB-CoA formed over total products ([6]; 75 mM formaldehyde): 64 ± 2
carboxylation of crotonyl-CoA ([7]; C2-ene adduct accumulates): completely impaired

B4: KsCcr variant Phe170Ala: KsCcr variant Phe170Ala, SEQ ID NO: 23 (protein)
chain: MQEILDAILSGDAASADYAALALPESYRAVTLHKGEERMFDGLASRDKDPRKSLHLDDVPLPELGPGEALVAVMASSVNYNTVWSSIFEPVSTFGFLERYGRLSPLTARHDLPYHVLGSDLAGVVLRTGAGVNAWKPGDEVVAHCLSVELESPDGHNDTMMDPEQRIWGAETNFGGLAQLALVKTNQLLPKPKHLTWEEAASPGLVNSTAYRQLVSRNGAGLKQGDNVLIWGASGGLGSYATQYALAGGATPICVVSSPRKADICRAMGAEAIIDRSAEGYRFWKDEHHQDPREWKRLGGKIREFTGGEDVDIVFEHPGRETFGASVYVTRKGGTIVTCASTSGYMHQYDNRYLWMSLKRIVGSHFANYREAFEANRLVAKGKIHPTLSKVYALEETGQAALDVHHNKHQGKVGVLCLAPREGLGVTDPELRSKHLTKINAFRNV
modifications: KsCcr variant Phe170Ala
Ratio of 2-HMB-CoA formed over total products ([6]; 5 mM formaldehyde): 17 ± 0
2-HMB-CoA produced (reductive aldol product) ([6]; 75 mM formaldehyde): up to 64%
Ratio of 2-HMB-CoA formed over total products ([6]; 75 mM formaldehyde): 64 ± 0
reductive carboxylation [7]: 17%

Source: patent US20250250593A1, “METHOD FOR PREPARING ALPHA-BRANCHED BETA'-HYDROXY CARBONYL COMPOUNDS BY ENZYMATIC-CATALYZED REDUCTIVE ALDOL REACTION” (Max-Planck-Gesellschaft zur Förderung der Wissenschaften …, priority 2022, published 2025)
